Assay [1] has as its target human ER-α36 (human) (UniProt P03372). Put plainly: flow cytometry on K562 cells, isotype control, concentration not given.
The next assay concerns the target ER-α36 LBD (3T3 Clone#4). Put plainly: flow cytometry on 3T3 cells, ER-α36 LBD Clone#4, isotype control at 2.5 µg/ml. In general terms: Flow cytometry measures light scatter and fluorescence of single cells or particles in a stream.
In assay [2] the target is human ER-α36 (human) (UniProt P03372). As to the kind of experiment: flow cytometry on 3T3 cells, ER-α36 Full length Clone#2, isotype control at 2.5 µg/ml.
The target is the same in assay [3]. Put plainly: flow cytometry on SK-BR-3 cells, isotype control; lower left panel without sample name, assigned by the order of the samples.
Assay [4] shares this target. Put plainly: flow cytometry on MHCC-97H cells, isotype control; second lower panel without sample name, assigned by peak height against histogram 3 of the overlay.
The target is the same in assay [5]. As to the kind of experiment: flow cytometry on MCF-7 cells, isotype control; lower left panel, which carries no sample name: assigned by peak height and by the order of the samples.
The target is the same in assay [6]. Put plainly: flow cytometry on MHCC-97H cells, isotype control; first lower panel without sample name, assigned by peak height (about 75) against histogram 4 of the overlay.

Sequence of human ER-α36 (human) (P03372 other isoform, or with tags, fused parts or gaps): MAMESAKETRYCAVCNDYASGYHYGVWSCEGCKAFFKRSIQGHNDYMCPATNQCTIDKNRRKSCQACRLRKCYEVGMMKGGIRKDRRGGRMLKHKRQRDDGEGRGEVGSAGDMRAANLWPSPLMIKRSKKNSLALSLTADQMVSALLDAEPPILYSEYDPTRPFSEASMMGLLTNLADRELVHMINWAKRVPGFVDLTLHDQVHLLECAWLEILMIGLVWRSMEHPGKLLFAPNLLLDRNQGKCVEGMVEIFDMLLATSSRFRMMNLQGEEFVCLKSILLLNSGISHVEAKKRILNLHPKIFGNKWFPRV
Sequence of ER-α36 LBD (3T3 Clone#4) (single chain, as listed by the source): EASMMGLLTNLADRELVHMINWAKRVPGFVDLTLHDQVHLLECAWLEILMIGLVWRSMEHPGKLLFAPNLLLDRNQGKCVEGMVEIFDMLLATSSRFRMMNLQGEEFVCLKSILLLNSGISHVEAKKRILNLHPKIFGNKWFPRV

Consider mouse IgG2b (antibody), for which the Geom. Mean FL1 with human ER-α36 (human) [1] came out at 24.3. Also, the %Gated (region B) with ER-α36 LBD (3T3 Clone#4) is 4.93%; with human ER-α36 (human) [2] it was 4.86%. Besides, the Yellow-A subset (percent of cells in the gate) was 13.1% with human ER-α36 (human) [3], 5.68% with human ER-α36 (human) [4], 19.9% with human ER-α36 (human) [5] and 6.82% with human ER-α36 (human) [6].

The record behind these values is US20160046721A1.
